Where a chain is given by its changes, count along the chain named.
Tests used:
Assay in all cases: SPR, FcgR analyte on protein A captured dAb-Fc
hCD32a-H131 = target: T1, hCD32a-H131 (human, UniProt P12318 34-217)
T1 construct: also called FcgRIIa-H131
T1 sequence (looked up): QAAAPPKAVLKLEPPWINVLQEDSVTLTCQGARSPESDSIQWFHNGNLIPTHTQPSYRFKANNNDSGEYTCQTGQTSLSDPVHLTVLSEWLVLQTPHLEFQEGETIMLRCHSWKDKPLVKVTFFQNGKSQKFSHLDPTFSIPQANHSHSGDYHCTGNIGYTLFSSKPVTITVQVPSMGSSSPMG

hCD32a-R131 = target: T2, hCD32a-R131 (human, UniProt P12318 34-217)
T2 construct: also called FcgRIIa-R131
T2 sequence (looked up): T1 sequence (looked up) with H134R

hCD32b = target: T3, hCD32b (human, UniProt P31994 43-217)
T3 construct: also called FcgRIIb
T3 sequence (looked up): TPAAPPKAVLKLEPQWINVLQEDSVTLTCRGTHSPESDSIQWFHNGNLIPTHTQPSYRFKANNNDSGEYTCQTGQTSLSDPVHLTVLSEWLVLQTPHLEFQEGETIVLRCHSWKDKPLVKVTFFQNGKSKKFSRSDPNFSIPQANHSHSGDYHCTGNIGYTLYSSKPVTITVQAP

hCD16a-V158 = target: T4, hCD16a-V158 (human, UniProt P08637 17-208, limits assumed)
T4 construct: also called FcgRIIIa-V158
T4 sequence (P08637 17-208 F176V limits assumed): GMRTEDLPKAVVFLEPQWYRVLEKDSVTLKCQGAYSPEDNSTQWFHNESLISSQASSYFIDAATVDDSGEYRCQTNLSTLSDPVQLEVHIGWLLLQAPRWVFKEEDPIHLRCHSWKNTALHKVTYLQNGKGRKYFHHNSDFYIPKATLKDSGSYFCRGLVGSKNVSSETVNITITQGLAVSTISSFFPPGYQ

hCD16b-NA2 = target: T5, hCD16b-NA2 (human, UniProt O75015 17-200, limits assumed)
T5 construct: also called FcgRIIIb-NA2
T5 sequence (O75015 17-200 N65S limits assumed): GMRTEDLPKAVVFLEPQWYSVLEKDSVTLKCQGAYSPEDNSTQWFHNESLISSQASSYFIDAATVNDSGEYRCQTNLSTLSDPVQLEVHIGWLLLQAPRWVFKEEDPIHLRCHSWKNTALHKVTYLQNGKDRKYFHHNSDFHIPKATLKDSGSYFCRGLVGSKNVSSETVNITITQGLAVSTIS

Kd (hCD32a-H131): > 5 µM
Kd (hCD32a-R131): > 5 µM
Kd (hCD32b): > 5 µM
Kd (hCD16a-V158): > 5 µM
Kd (hCD16b-NA2): > 5 µM
B1: 3h56-269-IgG1.1f (Fc fusion)
chain: EVQLLESGGGLVQPGGSLRLSCAASGFTFRDYEMWWVRQAPGKGLERVSAINPQGTRTYYADSVKGRFTISRDNSKNTLYLQMNSLRAEDTAVYYCAKLPFRFSDRGQGTLVTVSSASTEPKSCDKTHTCPPCPAPEAEGAPSVFLFPPKPKDTLMISRTPEVTCVVVDVSHEDPEVKFNWYVDGVEVHNAKTKPREEQYNSTYRVVSVLTVLHQDWLNGKEYKCKVSNKALPSSIEKTISKAKGQPREPQVYTLPPSREEMTKNQVSLTCLVKGFYPSDIAVEWESNGQPENNYKTTPPVLDSDGSFFLYSKLTVDKSRWQQGNVFSCSVMHEALHNHYTQKSLSLSPGK

— US20240141059A1 (Bristol-Myers Squibb, published 2024)
